Measured values as given in the DeepSol protein solubility set.

Assay: soluble on expression in E. coli; label from the status in PepcDB or PDB records
For “MGSDKIHHHHHHMNTYHPFSLTTPSTLMIQDWAQTNQNNKEVIAGFTTKNGGVSQKPFESLNTGLHVHDKDADVVKNREYIADMFNTDLQSWVFADQTHDNRVQKVTQRDRGKGAREYHTALKATDGIYTNEKNVFLALCFADCVPLFFYDPVKSLVGVAHAGWKGTVKQIGREMVKQWTEKEGSNPSDIYAVIGPSISGACYTVDDRVMDAVRALPVSADLAANQTAKAQYQLDLKELNRLILMDSGLASEQISVSGLCTESEPSLFYSHRRDQGKTGRMMSFIGMKEA”, the “soluble on expression in E. coli” value was “not soluble”.
With “MGSDKIHHHHHHMNVINETANVLKLETGSVTSAKGFSAVGIHTGVKRKRKDLGAIVCEVPASSAAVYTLNKVQAAPLKVTQESIAVEGKLQAMIVNSGIANACTGKRGLDDAYTMRAVGAETFHIPEHYVAVTSTGVIGEFLPMDVITNGIRQLKPEATIEGAHAFNEAILTTDTVEKHTCYQTIVNGKTVTVGGVAKGSGMIHPNMA” the “soluble on expression in E. coli” value was “soluble”.
For “MGSDKIHHHHHHMNVLALDTSQRIRIGLRKGEDLFEISYTGEKKHAEILPVVVKKLLDELDLKVKDLDVVGVGIGPGGLTGLRVGIATVVGLVSPYDIPVAPLNSFEMTAKSCPADGVVLVARRARKGYHYCAVYLKDKGLNPLKEPSVVSDEELEEITKEFSPKIVLKDDLLISPAVLVEESERLFREKKTIHYYEIEPLYLQKSIAELNWEKKKRG”, the “soluble on expression in E. coli” value was “soluble”.
In the case of “MGSDKIHHHHHHMNVRQLEAFQAVMSAGSLTAAAGLLSVSQPAVSQLIAQLEGNCGFSLFDRAGTKMRPTREAEVLHAEVQRMFIGVGRVANVAKALRDQTWGALSIASFPVLTRRMLPNIVTSFCKTRPDVKFSVESMRSRSLVDAVATQQVDLGFSILPGDRPEVDSTHVCTLRGLCILPKGHRLSKRRLIRAKDLDGEAFVALGPQDHSRFQIDKIFEEADVQRRIQVEVGQSETACSFVANGVGVAVVDPISVWNNAGADFVVCAFEPKMEFEIWLIRPKTARPFALIDTFSDYACAELMRLKEEEIDIRQPRG”, the “soluble on expression in E. coli” value is reported as “not soluble”.
In the case of “MGSDKIHHHHHHMNVTLRQLQAFIAVAELGRFHLAADHLGLTQSAISILIKDLEVALKHRLFDRHTRMVSLTTAGAEFLPQARKIMSDLEIAVANVHELASLQRGRVTIAAAIVLAATLLPPVIARFVKRYPDISVQVRDMPEEEIRSALKRNEADLGIGTVSADDPEIQASVLMRDQLTLICRSDHRFAKARQVSWASLAGEGVIGLAKDNPLRGLVDRALIASGVEVKTRYEVRFSTTAISMVAEGLGIAILPENSRQLTTNVDVRIVELVDPVISRNISILQYRQPMLSPAAAKMKEFLMGASRKLS”, the “soluble on expression in E. coli” value is reported as “not soluble”.
For “MGSDKIHHHHHHMPDAAGGVRVPHPPRPFDRPDRPAARLCRTQQLHPRVPPLERHLAPRLAGTAEPDRALKPQDKSLSKADPMTRLLLLEGNTADKRARGRELGVRSSSEIYAQAIAAHFPRIELDVLNGADEGEAIPHDRSWADYDGFVVTGSSLHAYDREFAVTNQIALVAQAAEHGLPIFGSCWGLQIAVMAAGGEVAYNPRGREVGFARKIALNDAGRAHPMFGAKQHVFDAPCIHYDEVVRMPDGATLLASNGHSLVQAAVIPLGQSEVWAVQYHPEFDLAQLVQLYTLYAADMIAQGFFSNEAELVAYRDKIARLAQDPTDAGLAWQLGIDADVLDPRQRAAEIIAWIESRVLNGT”, the “soluble on expression in E. coli” value was “not soluble”.
For “MGSDKIHHHHHHMPEPRRSTIDAGEVERFSALAAEWWNPNGKFRPLHKFNPVRLSYIRDQIAARFGRDPRAARPFEGLRILDIGCGGGLLCEPMARLGAEVVGADASETNIEVAKLHAAEGNVIVDYRATTAEDLADAGETFDVILNMEVVEHVADIDLFVAKCGQMVRPGGIMFVATINRTLKALGLAIIGAEYVLRWLPRGTHQFGKLVRPEELEKALGGASLTIIDRTGVTYNPLADRWARSKDMDVNYMVLAEKGSV”, the “soluble on expression in E. coli” value was “not soluble”.
With “MGSDKIHHHHHHMPFANPQEAIDFLDKHPQVQHVEVFIIDPNGIPRGKLLHRQEVLSMYRHGRPLPSTILGLTVQGDDVEDTGLVWEVGDADCLAFPIEGGLLMQPWRAQPTAQVHLTMHPEAGMPAAVADPRLVLSKVIDSLQADGFYPVMAAELEFFLLDQRFDANGRPQPAMQSDGHRPHQTQVYGILELERLQPFLDDLYHACEVQGIPARTAISEYAPGQVEITLEHRFDALQAMDEAVRYKRLVKGVAAKHGMQACFMAKPFGELAGSGMHMHVSLADADGNNRFASDNPEGTPELTQSIAGMMATLEDAQLLFCPNANSFRRFQSASYAPIAKTWGVNNRTVSFRVPGGPAPSRHVEHRICGADANPYLAAAAILAACHHGIRNQLSPGQAIVGNGYEGKHQTLPTDWLSALTNFERSEWMKSVLGEDFHRIYGRIKRAEYQEFMAEVGQQDWHWYLTHA” the “soluble on expression in E. coli” value was “not soluble”.
In the case of “MGSDKIHHHHHHMPFIIDYQCLCAINSEIKMFSGEQLGQAISEAIKRKNVSQKEVADHFGVKQPSVSGWIKNGRIDKKHLDKLIDYFSDVVTPSHFGIETFRVLKSNEQSSIRFPRLNAEATCGAGTINDHYIEVVDYVTVAAAWAREKLGGNLNKIQVITARGDSMEPTIENGDVMFVDTAVEAFDGDGLYLLWYIDGLKAKRLQSTVGGGLMIISDNSSYRTETVRGEDLNAVRIIGRIRGAWRLSQF”, the “soluble on expression in E. coli” value is reported as “not soluble”.
With “MGSDKIHHHHHHMPHKASVFIVEFKFELESCPLGVVIPLEESKNKLASVKPLVDLTRPDMERVNQLILSRAGSDVQMIPEVANHLISSGGKRLRPMLTLASASMFGYEGDNHIKLATSVEFMHTATLLHDDVVDESDLRRGKSTARTIWGNQASVLVGDFLLGQAFRMMVDVGSLDALDVLSTAASVIAEGEVLQLSVAKNMETTEDDYLQVIRAKTAALFAAAAEVGPIVAKTDKASRSALKSYGMNLGLAFQLVDDVLDYGGKSADLGKNTGDDFREGKITLPVILSYRRGTQDERAFWRNAIEKGESSDENLEKALGLITKYNGLGDTIGRATHYGTIARDALAPLPQSPWKNALLEVIDFCIERLN” the “soluble on expression in E. coli” value was “not soluble”.
In the case of “MGSDKIHHHHHHMPIHLIWGDDAAARDHAIETLIGDVVDQAWSSINLSRLDGADAGQASQALAEARTPPFGSGGRLVLLQRSPFCNACPSELANRFEDVLDLIPETSHLVLCNPNKPDGRLRTTKALQKLVKLKQASEKSFLLPAIWDGAGQQELVERTARDLGLQLEPEATAALVEAIGNDSTRLTAELQKLALHADIRQESATENQSPTLIKAENVAALIEGMATNALQVGDSLLAGHAGEAIARLDALLDAGEPALRIVATLTGQIRGWLWVSLLEQQGERDVNVIAKAAGIGNPKRIYVMRKQLQGRPPQRFLTLLSRLLEVEAALKRGAIPTDAFRDGLLSTP”, the “soluble on expression in E. coli” value is reported as “not soluble”.
For “MGSDKIHHHHHHMPKHLYSLLVVNINMFEKEKEILAKRIAGEIVLSPDPGKTMRKWREIFGISQTELADYLGVSSSVISDYEGGRRKSPGASTIRKFVEALIEIDEKRGGNVIKAFSRTFSSEIPTSAILDIREFDIPVTVKDIVDAVKGEIVANPDLIDRKIYGYTVVDSIQAILEMSAEEFLKLYGWTTERALVFTKVTTGRSPMIAVRVQGLKPAMVVLHGVKRLDELAVKIAEKERVPLVVSKAENETELITGLRRLVTSI”, the “soluble on expression in E. coli” value was “not soluble”.
In the case of “MGSDKIHHHHHHMPKQTFFNLKDEKRQRIIDAAEREFSQCPLYESSINNIIKDAKIPRGSFYQYFDDLSDLYGYYFSLILEDIQENLIDSVQEADGDIFSAVKKYAGEYMKEIISGNHRDFYRNFFLGANISKRSKDGKHPGFDVYHSDRMKELRVNLKKEVNWKLLKVTNEKDQNMIQQLIMMIFFHSFANYFVHSNNTDSDPAEVQKEIERNLNWLEFGARRTEDK”, the “soluble on expression in E. coli” value is reported as “not soluble”.
In the case of “MGSDKIHHHHHHMPKRPVRKPGVFARLEDLYTRMETAYNATAAAAGLTCTGCDDNCCRTHFRHHTRIEWAYLWKGMLSLSPERREAYLERAKDVVAQCDAALAAGVVPRVMCPLNDEGRCGLYKYRLMICRMHGTRNILRLPDGRTQVFRGCHRFDNCTAQFADADRPSLDRTPLYTELAKLEMEHLGPTAARQQRVDLTLAEMLVYGPPKP”, the “soluble on expression in E. coli” value is reported as “not soluble”.
With “MGSDKIHHHHHHMPLKSSYSDQLKKTDQSLIALLSDRISLLASEQPSLDEQLASVAPLLAQAGIPESVWAGVVNSCHASLTPKSAINHASPRQVTIIGGRGRMGRLFQEQLSLVGHNVSILEHEDWEYAEQLLSQAELVLVSVPIEHTVDVIKRAAKYLASNTALCDITSIKTQPTQAMLEHHCGPVMGLHPMFGPNIKSFLGQKVVVCPGRNDDSFQWLLDFLKSKGGELIVCTPEEHDRMMVIIQATQHFCRFSLGVFLAQARVEIEQSLTMSTPNYRQEIDIVKRLFAQNPNLCVDIMLATEERCNAISFLANTYSRLARLVARKDREALIKEFENTQSFFEGKINSFLQPLNTTALKRDFKPQNIGI” the “soluble on expression in E. coli” value was “not soluble”.
